Assay results from paper PMC4229625.

Molecular target: GST-Ana2 phosphorylated by active Plk4 (MBP-Plk4) (Drosophila) (UniProt Q9XZ31)
Test: pull-down; recombinant GST-Ana2 (or its fragments or mutants) on beads, incubated with active MBP-Plk4 or inactive MBP-Plk4^KD, then with ^35S-Met-labeled proteins made by in vitro transcription and translation; SDS-PAGE and autoradiography

Chain of UniProt Q9XZ31 (Q9XZ31 entry or part of it): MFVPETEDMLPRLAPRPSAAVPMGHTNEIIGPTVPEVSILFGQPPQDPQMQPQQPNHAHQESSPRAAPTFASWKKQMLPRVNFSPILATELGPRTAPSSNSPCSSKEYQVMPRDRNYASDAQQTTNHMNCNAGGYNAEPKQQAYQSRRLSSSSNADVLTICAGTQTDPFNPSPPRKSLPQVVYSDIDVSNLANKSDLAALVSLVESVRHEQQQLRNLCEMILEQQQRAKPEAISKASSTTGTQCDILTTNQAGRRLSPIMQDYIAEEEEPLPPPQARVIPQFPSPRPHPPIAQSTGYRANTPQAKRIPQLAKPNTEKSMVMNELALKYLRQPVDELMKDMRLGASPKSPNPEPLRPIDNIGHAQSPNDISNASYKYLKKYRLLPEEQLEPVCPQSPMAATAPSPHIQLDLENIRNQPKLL

fold increase of binding against Ana2 treated with inactive Plk4: 3.5 fold
Substance: ^35S-Met-labeled Bld10 (natural protein)
